Results on 167 variants are retold here after the RNAGym collection of RNA variant scans (doi:10.7554/elife.90254).

First the molecules themselves.
B1: OR4K15 (parent)
chain: GUUAACGGUCAUAGGCCAUGGAAACUAGGAGCACCAUUUCGCUGCCAGUGAAGAAAUGAACAAAGAAAAUCUGGGCCAGGCAGGCAUCAAAAGAAAUAGUCUUGCGCUCAACCAGAAAGUCUGUAAUCAUUUUAAGGGUA

Variants of B1 are the subject of this data set. Description: self-cleavage, relative activity (ratio to wild type); higher = more cleavage; in vitro, sequencing; the parent is a self-cleaving ribozyme.
On to A47U U133C, for which the self-cleavage is 0.97.

With A18U U70A, the self-cleavage was found to be 1.35.

Regarding U122G, the self-cleavage worked out at 2.57.

In the case of A56G A110G, the self-cleavage is 0.07.

Take C85A: the self-cleavage came out at 1.18.

For U57C A89U, the self-cleavage is 0.77.

Take A11U G75C: the self-cleavage is 0.16.

Turning to A4G A5G, the self-cleavage is 1.25.

Consider C46U A62U, for which the self-cleavage was determined as 1.83.

Regarding U9C U127C, the self-cleavage was determined as 1.44.

In the case of U39A U127C, the self-cleavage turned out to be 0.28.

For A111U A129G, the self-cleavage worked out at 0.19.

Turning to A116C U127C, the self-cleavage came out at 0.03.

On to U19C A110C, for which the self-cleavage is 0.16.

With A30U A59G, the self-cleavage was 0.34.

Regarding C45G U102C, the self-cleavage was found to be 1.48.

For A18U A56G, the self-cleavage worked out at 1.48.

With C17G G79A, the self-cleavage was determined as 0.18.

Turning to G41A A135G, the self-cleavage stood at 0.99.

On to U12C A89U, for which the self-cleavage came out at 1.82.

Regarding U37C G80A, the self-cleavage was determined as 0.21.

As for U19C G48A, the self-cleavage was determined as 1.61.

Consider U26C A63G, for which the self-cleavage came out at 1.48.

On to U49C A62G, for which the self-cleavage turned out to be 1.57.

Take A82G A98G: the self-cleavage is 0.27.

In the case of A114G A118C, the self-cleavage worked out at 0.11.

On to U9C A23C, for which the self-cleavage amounted to 1.27.

On to U26A U102C, for which the self-cleavage is 1.69.

For the variant U49C A126G, the self-cleavage amounted to 1.26.

For C34U U43C, the self-cleavage stood at 1.48.

Regarding A24U A86G, the self-cleavage was 1.8.

For U9A G58U, the self-cleavage was 0.65.

For A18U U100C, the self-cleavage was determined as 2.18.

Turning to A63U A98U, the self-cleavage is 1.84.

For A30G G106A, the self-cleavage was 0.07.

Consider U57A A82U, for which the self-cleavage was found to be 0.31.

As for A52G A140G, the self-cleavage stood at 1.63.

Regarding C113U U132A, the self-cleavage stood at 0.06.

As for U124C A126G, the self-cleavage turned out to be 0.48.

C77U U102A: the self-cleavage stood at 1.57.

Take U103C A110G: the self-cleavage was 0.15.

On to U19A A62G, for which the self-cleavage was found to be 1.32.

Take C71A A78U: the self-cleavage came out at 0.26.

Take A66G U100C: the self-cleavage stood at 2.05.

Regarding U37C A125G, the self-cleavage stood at 0.68.

On to C81A A82G, for which the self-cleavage was found to be 0.13.

Turning to A64G U139C, the self-cleavage was 1.

In the case of U108C U130A, the self-cleavage came to 0.

As to C46U C85U, the self-cleavage was found to be 1.36.

Take A51U U127C: the self-cleavage is 0.76.

Turning to A18G A67U, the self-cleavage was 1.79.

A13G U139C: the self-cleavage came out at 1.13.

For C113A, the self-cleavage was 0.03.

On to C40U U103C, for which the self-cleavage is 0.96.

For the variant C71U A95G, the self-cleavage came out at 0.97.

For A67G A98U, the self-cleavage was found to be 1.26.

For the variant A13U G79A, the self-cleavage turned out to be 0.19.

Consider G7A U72C, for which the self-cleavage worked out at 0.27.

On to A78C U102C, for which the self-cleavage was determined as 0.42.

A18U A114U: the self-cleavage turned out to be 0.08.

As to A69G U70A, the self-cleavage was 1.26.

With U38A A117U, the self-cleavage was found to be 0.73.

Consider A60U G106C, for which the self-cleavage is 0.

As for A96U A111G, the self-cleavage was determined as 0.04.

With U38A A67G, the self-cleavage was 0.89.

In the case of G106C U108C, the self-cleavage amounted to 0.

As for G83A U131C, the self-cleavage came out at 1.28.

As for G75A G93A, the self-cleavage turned out to be 0.14.

A18U A23G: the self-cleavage worked out at 1.26.

For the variant U37G A111G, the self-cleavage was 0.03.

As to A4G A69C, the self-cleavage came out at 0.53.

For U9A A27G, the self-cleavage was found to be 0.47.

For U49G U122C, the self-cleavage came out at 0.39.

A68G U100C: the self-cleavage stood at 1.42.

As to G75U U127C, the self-cleavage came out at 0.11.

For the variant A63U A68G, the self-cleavage stood at 0.87.

On to A36G U72C, for which the self-cleavage came to 0.14.

Consider A90U A125G, for which the self-cleavage is 0.8.

For A36C G41U, the self-cleavage came to 1.47.

As for A63G A95G, the self-cleavage worked out at 2.26.

For A36C A78C, the self-cleavage was determined as 0.32.

Turning to U43C A111G, the self-cleavage was 0.02.

In the case of A5U U130C, the self-cleavage amounted to 0.85.

A54G A55G: the self-cleavage stood at 0.99.

For A4G A95G, the self-cleavage worked out at 1.4.

As to A62G A64U, the self-cleavage came to 1.23.

Consider A23G G41C, for which the self-cleavage is 1.01.

In the case of A36U C113U, the self-cleavage amounted to 0.02.

On to U108G A118G, for which the self-cleavage was 0.01.

For A59G A78G, the self-cleavage came to 0.26.

For A36U U49C, the self-cleavage was found to be 2.04.

Take A36G C128A: the self-cleavage worked out at 1.16.

Take U2A A90U: the self-cleavage came to 1.25.

Take C25U A111G: the self-cleavage is 0.09.

In the case of U9A U43A, the self-cleavage was 0.83.

As to U100A A117G, the self-cleavage worked out at 1.14.

For G99U A117G, the self-cleavage came out at 0.36.

As for A62C A91G, the self-cleavage came to 1.31.

Turning to A11U A140U, the self-cleavage amounted to 1.3.

As to A90U A140U, the self-cleavage amounted to 1.2.

For A92G G106A, the self-cleavage is 0.02.

As for G14C A18G, the self-cleavage was 1.59.

With U87G A134G, the self-cleavage turned out to be 0.44.

With C45U A114U, the self-cleavage was 0.13.

Take A68G A82C: the self-cleavage was found to be 0.2.

Regarding A13U U122A, the self-cleavage is 1.5.

On to G14A A129U, for which the self-cleavage stood at 0.41.

As for G7U U19C, the self-cleavage stood at 1.79.

As to G28A A78U, the self-cleavage is 0.18.

A111U A114U: the self-cleavage is 0.02.

For A92U C112U, the self-cleavage is 0.01.

As to C101A A117G, the self-cleavage turned out to be 0.13.

As for C71U A92G, the self-cleavage amounted to 0.52.

Turning to C40A A78G, the self-cleavage was 0.32.

Consider U39A G137A, for which the self-cleavage amounted to 1.8.

A51G U100C: the self-cleavage stood at 1.87.

U19C A59U: the self-cleavage was determined as 0.81.

With A30G A51G, the self-cleavage was found to be 1.07.

Regarding C25U A86C, the self-cleavage is 0.72.

Regarding A27G C105U, the self-cleavage is 0.24.

Turning to U102C U127C, the self-cleavage is 1.56.

Turning to A30U A36U, the self-cleavage came out at 1.67.

In the case of A59U U103C, the self-cleavage worked out at 0.31.

In the case of A18U A116G, the self-cleavage is 0.63.

Regarding U3A U70C, the self-cleavage was determined as 1.14.

With G21U A82G, the self-cleavage came to 0.98.

Take A89U A118G: the self-cleavage was found to be 1.61.

Consider A22U G138U, for which the self-cleavage came to 2.01.

As for A63C C81U, the self-cleavage came out at 0.41.

A27G U122C: the self-cleavage turned out to be 1.45.

On to U38C U108C, for which the self-cleavage is 0.02.

Regarding U26A A47G, the self-cleavage is 0.94.

As to C10U A110G, the self-cleavage was 0.19.

With A59G A117U, the self-cleavage was 0.95.

Turning to U19C A92G, the self-cleavage worked out at 1.53.

Regarding G41A A94G, the self-cleavage is 1.9.

For the variant A30G A78G, the self-cleavage turned out to be 0.11.

On to G7A A89G, for which the self-cleavage was found to be 0.61.

Turning to U57G A62G, the self-cleavage was determined as 0.83.

Turning to A22U A78U, the self-cleavage worked out at 0.33.

On to A4G A55G, for which the self-cleavage turned out to be 1.13.

Turning to U87C U122C, the self-cleavage is 1.07.

For the variant U102C U139A, the self-cleavage turned out to be 2.11.

Consider C101A U124C, for which the self-cleavage was found to be 0.08.

A22U A63G: the self-cleavage is 1.45.

In the case of U26A U132C, the self-cleavage came to 0.9.

For G58A A67G, the self-cleavage was 0.36.

G8A U103G: the self-cleavage came to 0.03.

With U12C G44A, the self-cleavage is 2.15.

Consider A22G U57C, for which the self-cleavage is 0.91.

With A23U A118G, the self-cleavage is 0.66.

On to A13U A47G, for which the self-cleavage was determined as 0.93.

Turning to A116U A126U, the self-cleavage amounted to 0.21.

For U37C A47U, the self-cleavage was 0.63.

A5U G138A: the self-cleavage stood at 1.71.

Turning to A86U A89C, the self-cleavage was 1.51.

Consider A11U U87A, for which the self-cleavage was 1.75.

Turning to A18G U124G, the self-cleavage was found to be 0.94.

For the variant A47U A68G, the self-cleavage worked out at 0.48.

For G75C U103G, the self-cleavage was found to be 0.02.

Consider U49C A135U, for which the self-cleavage is 2.28.

On to G29A U103C, for which the self-cleavage was determined as 0.77.

On to A13U U57C, for which the self-cleavage came out at 0.64.

For U39C A116U, the self-cleavage was 0.23.

A47G A66G: the self-cleavage is 0.23.

For the variant U2C A116G, the self-cleavage came to 0.6.

On to G31A A86G, for which the self-cleavage worked out at 1.75.
